US20060239990A1, “Protein Arginine N-Methyltransferase 2 (PRMT-2)” (priority 2003, published 2006)

B1: PRMT2(1-95&219-433): internal deletion of amino acid 96-218, deleting the AdoMet binding domain (protein)
chain: MATSGDCPRSESQGEEPAECSEAGLLQEGVQPEEFVAIADYAATDETQLSFLRGEKILILRQTTADWWWGERAGCCGYIPANHVGKHVDEYDPEDFEFMIESILYARDAWLKEDGVIWPTMAALHLVPCSADKDYRSKVLFWDNAYEFNLSALKSLAVKEFFSKPKYNHILKPEDCLSEPCTILQLDMRTVQISDLETLRGELRFDIRKAGTLHGFTAWFSVHFQSLQEGQPPQVLSTGPFHPTTHWKQTLFMMDDPVPVHTGDVVTGSVVLQRNPVWRRHMSVALSWAVTSRQDPTSQKVGEKVFPIWR
B2: PRMT4: protein methyltransferase CARM1 (PRMT4) (protein)
chain: AAAAAAVGPGAGGAGSAVPGGAGPCATVSVFPGARLLTIGDANGEIQRHAEQQALRLEVRAGPDSAGIALYSHEDVCVFKCSVSRETECSRVGKQSFIITLGCNSVLIQFATPNDFCSFYNILKTCRGHTLERSVFSERTEESSAVQYFQFYGYLSQQQNMMQDYVRTGTYQRAILQNHTDFKDKIVLDVGCGSGILSFFAAQAGARKIYAVEASTMAQHAEVLVKSNNLTDRIVVIPGKVEEVSLPEQVDIIISEPMGYMLFNERMLESYLHAKKYLKPSGNMFPTIGDVHLAPFTDEQLYMEQFTKANFWYQPSFHGVDLSALRGAAVDEYFRQPVVDTFDIRILMAKSVKYTVNFLEAKEGDLHRIEIPFKFHMLHSGLVHGLAFWFDVAFIGSIMTVWLSTAPTEPLTHWYQVRCLFQSPLFAKAGDTLSGTCLLIANKRQSYDISIVAQVDQTGSKSSNLLDLKNPFFRYTGTTPSPPPGSHYTSPSENMWNTGSTYNLSSGMAVAGMPTAYDLSSVIASGSSVGHNNLIPLANTGIVNHTHSRMGSIMSTGIVQGSSGAQGSGGGSTSAHYAVNSQFTMGGPAISMASPMSIPTNTMHYGS

Key:
RB = target: T1, RB (Homo sapiens, UniProt P06400); assay: In vitro binding assay with GST-RB; conditions: S35-labeled in vitro translated protein
T1 construct: coding region of RB cDNA was subcloned into pGEX-6P (Amersham/Pharmacia) for generation of GST-RB; made in house
T1 sequence (P06400 1-928): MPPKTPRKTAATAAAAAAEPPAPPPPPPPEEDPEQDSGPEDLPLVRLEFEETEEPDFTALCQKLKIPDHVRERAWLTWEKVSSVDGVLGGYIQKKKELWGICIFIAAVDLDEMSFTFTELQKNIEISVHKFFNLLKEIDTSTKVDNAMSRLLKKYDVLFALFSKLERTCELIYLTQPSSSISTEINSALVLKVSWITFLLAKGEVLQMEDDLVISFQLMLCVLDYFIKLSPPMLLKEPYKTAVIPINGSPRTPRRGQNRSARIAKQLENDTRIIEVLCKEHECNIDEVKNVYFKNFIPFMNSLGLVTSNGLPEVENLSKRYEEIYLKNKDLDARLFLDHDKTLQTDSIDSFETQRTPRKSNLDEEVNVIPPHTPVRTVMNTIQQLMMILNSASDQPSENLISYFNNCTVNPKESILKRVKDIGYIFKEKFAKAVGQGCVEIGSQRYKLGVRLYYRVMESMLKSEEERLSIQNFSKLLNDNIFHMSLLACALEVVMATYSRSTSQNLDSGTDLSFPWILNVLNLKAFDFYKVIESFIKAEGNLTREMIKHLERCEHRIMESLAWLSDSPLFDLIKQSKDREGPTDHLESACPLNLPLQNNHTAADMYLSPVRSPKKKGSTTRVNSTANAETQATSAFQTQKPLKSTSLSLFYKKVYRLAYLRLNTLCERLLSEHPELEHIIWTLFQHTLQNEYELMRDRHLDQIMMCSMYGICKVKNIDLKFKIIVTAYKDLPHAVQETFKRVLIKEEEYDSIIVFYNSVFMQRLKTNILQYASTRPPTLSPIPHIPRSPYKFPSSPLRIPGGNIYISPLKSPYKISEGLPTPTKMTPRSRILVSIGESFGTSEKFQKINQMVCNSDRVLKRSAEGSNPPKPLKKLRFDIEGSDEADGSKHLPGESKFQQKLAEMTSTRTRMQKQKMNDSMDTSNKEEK
Description: The crude cell lysate of the GST-fusion proteins was prepared and purified according to the manufacture's protocol (Amersham/Pharmacia). [^35S]-methionine-labeled protein was produced by in vitro transcription/translation using the TNT T7-coupled reticulocyte lysate system (Promega). [^35S]-methionine-labeled protein and GST-fusion protein bound to glutathione sepharose 4B beads were incubated in 500 μl of HNE buffer (50 mM Hepes, pH 7.8, 150 mM NaCl, 1 mM EDTA, 1 mM DTT, 1% NP40, and 1× protease inhibitor mix (Complete: Roche)) at 4° C. for 1 hour. Beads were washed four times with HNE buffer, and then analyzed on an SDS-PAGE gradient gel (4-15%). For the detection of endogenous PRMT-2 interaction with RB, MEFs were lysed with WCL buffer (50 mM Hepes, pH 7.8, 400 mM NaCl, 2 mM EDTA, 1 mM DTT, 0.2% NP40, 10% Glycerol, 20 mM α-glycerophosphate, 5 mM NaF, 0.1 mM NaVO4, and 1× protease inhibitor mix). Then, 1 mg of whole cell extracts were incubated with HNE buffer without DTT and 3 μg of antibodies as indicated. The immune complexes were isolated using protein G beads, and washed four times with HNE buffer. The precipitated protein was boiled with SDS-loading buffer and resolved on SDS-PAGE. For immunoprecipitation of HA-tagged protein, transfected cells were lysed with RIPA buffer (phosphate buffer saline containing 1% NP40, 0.5% sodium deoxycholate, 0.1% SDS, and 1× Complete), and 100 μg of whole cell lysates were immunoprecipitated with anti-HA antibodies and washed in RIPA buffer. Western blot analysis was performed as described in Tanner et al. (1998). Circ Res, 82, 396-403.
To test whether PRMT family members interact with RB, S^35-labeled in vitro translated PRMT1, PRMT2, PRMT3, and PRMT4 (CARM1) were incubated with GST-RB fusion proteins or control GST, and co-precipitated labeled proteins were resolved by SDS-PAGE. […] An equal amount of GST-RB and GST were loaded in each lane, verified by Coomassie staining (FIG. 8B).

E2F1 = assay: E2F reporter assay (GAL4-E2F1 activator, luciferase); assay type: cell-based; conditions: U2OS cells, in the presence of the E2F1 activator
Description: HeLa cells, U2OS cells, and Saos2 cells were seeded at a density of 5×10^4 per well in 24-well plates. Cells were transfected 24 hours later with the indicated plasmid and with 20 ng of pRL-TK (Promega) as an internal control to normalize transfection efficiency. The amount of CMV promoter in the transfection was kept constant using empty vector. Cells were harvested at 30 or 36 hour after transfection and luciferase activity was analyzed by Dual-Luciferase Reporter Assay System (Promega). Luciferase activity was measured as a ratio of Firefly to Renilla. To study endogenous E2F activity in MEFs, PRMT-2^+/+ or PRMT-2^−/− MEFs were seeded at a density of 3×10^5 per well in 6-well plates. Cells were transfected 24 hours later with 3 μg of E2F4B-Luc and 10 ng of pRL-TK plasmid. Cells were harvested at 36 hour after transfection and analyzed for luciferase activity as described above.

HIV-1 LTR = assay: HIV-1 reporter transcription, transient co-transfection; assay type: cell-based, human; conditions: 293T cells, co-transfection
Description: Cell culture, transfection, and reporter gene assays. The E1A-transformed, human kidney cell line, 293, and NIH-3T3 cells were maintained in Dulbecco's Modified Eagle Medium (DMEM) supplemented with 10% fetal calf serum and penicillin-streptomycin at 37° C. in 5% carbon dioxide in tissue culture grade Petri dishes. PRMT-2−/− mouse embryo fibroblasts (MEFs) and wild type MEFs were prepared from day 13.5 embryos and maintained in DMEM supplemented with 10% fetal calf serum. MEFs at passage 4 were used in this experiment. Lipofectamine Plus™ reagent (Boehringer Mannheim) was used to transfect both 293 and NIH-3T3 cells according to directions from the manufacturer. […] TNF-α stimulation of cells was done using recombinant TNF-α (200 U/ml) for 12 hours. Transfected cells were harvested at 36 hours, and CAT activity was assayed on 10 to 100 μg of protein from whole cell extracts. CAT assays were performed essentially as described in Leung, K. & Nabel, G. J. Nature 333, 776-778 (1988). To analyze the κB-reporter activity in MEFs, cells were transfected with the reporter (2×kB-Luc) and PRL-TK vector (Promega) using FuGENE6 transfection reagent (Roche). Luciferase activity was analyzed by Dual-Luciferase Reporter Assay System (Promega).
To determine whether PRMT-1, 2 or 3 could affect NF-κB function, their potential to regulate effects on transcription of the human immunodeficiency virus type 1 (HIV-1) was examined. Transient co-transfections were performed using PRMT1, PRMT2 and PRMT3 expression plasmids with an HIV-1 reporter plasmid in the human renal epithelial cell line, 293T.
To determine its dependence on NF-κB, human immunodeficiency virus type 1 (HIV-1) reporter plasmids with wild-type (WT) or mutant (ΔκB) sites were co-transfected transiently with control or PRMT2 expression plasmids in the different cell lines. […] The KB effect was dose-dependent and was also observed with other inducers of NF-κB, including phorbol […] (PMA) (FIG. 2B, right panel).

Molecule | binding to RB (RB) | E2F1 activity (E2F1) | effect on transcription of the HIV-1 reporter plasmid (HIV-1 LTR)
B1 | did not bind GST-RB | failed to repress E2F1 activity | 
B2 | do not bind RB |  | failed to inhibit NF-κB transcription specifically
